From article PMC9872521

Substrate: NCCc1ccc(O)c(O)c1
Assay: cells, lysate or membranes
Conditions: sodium inward-facing conformation favors substrates

B1: human dopamine transporter (hDAT) (Homo sapiens) (protein)
chain: MSKSKCSVGLMSSVVAPAKEPNAVGPKEVELILVKEQNGVQLTSSTLTNPRQSPVEAQDRETWGKKIDFLLSVIGFAVDLANVWRFPYLCYKNGGGAFLVPYLLFMVIAGMPLFYMELALGQFNREGAAGVWKICPILKGVGFTVILISLYVGFFYNVIIAWALHYLFSSFTTELPWIHCNNSWNSPNCSDAHPGDSSGDSSGLNDTFGTTPAAEYFERGVLHLHQSHGIDDLGPPRWQLTACLVLVIVLLYFSLWKGVKTSGKVVWITATMPYVVLTALLLRGVTLPGAIDGIRAYLSVDFYRLCEASVWIDAATQVCFSLGVGFGVLIAFSSYNKFTNNCYRDAIVTTSINSLTSFSSGFVVFSFLGYMAQKHSVPIGDVAKDGPGLIFIIYPEAIATLPLSSAWAVVFFIMLLTLGIDSAMGGMESVITGLIDEFQLLHRHRELFTLFIVLATFLLSLFCVTNGGIYVFTLLDHFAAGTSILFGVLIEAIGVAWFYGVGQFSDDIQQMTGQRPSLYWRLCWKLVSPCFLLFVVVVSIVTFRPPHYGAYIFPDWANALGWVIATSSMAMVPIYAAYKFCSLPGSFREKLAYAIAPEKDRELVDRGEVRQFTLRHWLKV
Q: B1 was tested. Which Km did it give?
A: 2.31 µM
